Assay results taken from patent publication US20250034601A1, “HETERODIMERIC BENZALDEHYDE SYNTHASE, METHODS OF PRODUCING, AND USES THEREOF” (Purdue Research Foundation, priority 2021, published 2025).

Substrate: CC(C)(COP(=O)(O)OP(=O)(O)OC[C@H]1O[C@@H](n2cnc3c(N)ncnc32)[C@H](O)[C@@H]1OP(=O)(O)O)[C@@H](O)C(=O)NCCC(=O)NCCSC(=O)c1ccccc1
Assay: purified protein, by the assay type
Assay type: biochemical, Arabidopsis thaliana
Conditions: other: apparent, measured at 4 mM NADPH, pH 6.5, 28° C.
Experimental: The reaction was initiated by adding a protein and incubated at 28° C. for 30 minutes, and the reactions were then terminated by adding 100 μL of 100% ice-cold methanol (MeOH). The BS enzyme assays were performed at an appropriate enzyme concentration so that reaction velocity was proportional to enzyme concentration and linear during the incubation time period. Km and Vmax were determined by non-linear fit to the Michaelis-Menten equation using Graphpad Prism, v8.2.0.
Triplicate assays were performed for all data points.
After centrifugation at 15,000 g for 20 minutes, 5 μL of the supernatant were subjected to high-performance liquid chromatography (HPLC) analysis using an Agilent 1260 Infinity II system (Agilent Technologies, Inc., Santa Clara, CA) equipped with an InfinityLab Poroshell 120 EC-C18 column (3.0×150 mm, 2.7 μm) maintained at 35° C. Products were separated with a 15-minute linear gradient of 10% aqueous acetonitrile solution to 100% acetonitrile and monitored at 248 nm using a diode array detector (DAD). Benzaldehyde was identified by comparing the retention time and absorption spectrum with authentic standard.
Quantitation was achieved by using standard curve generated from authentic standard and product verification was performed by GC-MS.
Recombinant BS proteins were produced in E. coli by expressing the corresponding coding regions (CDS) subcloned into an expression vector pMAL-c5X (New England BioLabs, Ipswich, MA) containing a maltose binding protein (MBP) tag using ClonExpress II One Step Cloning Kit (Vazyme Biotech Co., Piscataway, NJ).
After sequence verification, the desired plasmids were transformed into Rosetta2 (DE3) pLysS competent cells (MilliporeSigma, Burlington, MA). Single colonies were picked and cultured overnight in 2 ml LB medium containing 100 mg/L carbenicillin and 34 mg/L chloramphenicol at 37° C. Overnight cultures were then diluted 100-fold with LB medium and continued to culture at 37° C. until OD600 reached ˜0.5.
After cooling the cell culture on ice for 10 minutes, isopropyl β-D-1-thiogalactopyranoside (IPTG) was added to a final concentration of 0.1 mM and cells were incubated at 28° C. with shaking for additional 2.5 to 3 hours. After harvesting cells by centrifugation, their lysis and protein purification were performed according to the manufacturer's protocol of Amylose Resin (New England Biolabs, Ipswich, MA).

B1: Arabidopsis thaliana benzaldehyde synthase (AtBS), recombinant heterodimer AtBSα (SEQ ID NO: 5) / AtBSβ (SEQ ID NO: 8), wild type, MBP-tagged (Arabidopsis … (protein)
chain 1: MSNHQTQVLKLLEPWCELKDKVVLVTGASSGIGREICLDLAKAGCQVIAAARRVDRLNSLCSEINSFSSTGIQAAALELDVSSDAATIQKAVREAWDIFGKIDALINNAGIRGNVKSSLDLSEDEWDNVFKTNLKGPWLVSKHVCMLMRDAKRGGSVINISSIAGIRGMLPGGLAYACSKGGVDTMSRMMALELGVHKIRVNSIAPGLFKSEITQGLMQKEWLKNVTERTVPLKVQQTVDPGLTSLVRYLIHDSSQYISGNTYIVDSGATLPGVPIFSSL
chain 2: MENPAKRVLMTSNGDEVSRNIAFHLAKHGCKLVMMGNEGSLRSIVDKIRDSIEGAFPADVIALDMESDSEVAFHAAVQKAWELSGHFDAFLNSYTYQGKVQDILQVSQDEFHRITKINLTAPWFLLKAVATRMKDHGSGGSIVFMATIASGERALYPGADAYASTSAAIHQLVRASAMSLGKHKIRVNMISRGLHLDDEYTASVGRDRAQKLVKDAAPLGQWLNPDTDLYSTVIYLISDGSRFMTGTTVLVDGAQSLTRPRLKSYM
notes: full-length CDS from flower cDNA
B1 was tested, and the Km was 242.8 ± 28.2 µM, the Vmax was 0.864 µmol/min/mg and the kcat was 2.12 ± 0.08 s⁻¹. For the same protein, the kcat/Km was 8700 ± 1100 M⁻¹ s⁻¹.
